{
  "source": "paper doi:10.1101/310227",
  "key": {"[1]": {"target": "Halo-tagged isopeptide-blocker (Spy0128 β-strand11 mimic) (Streptococcus pyogenes)", "assay": "pull-down"}, "[2]": {"target": "Spy0128 polyprotein I91-Spy0128-I91-Spy0128-I91 (not stated | Streptococcus pyogenes)", "assay": "AFM force spectroscopy"}},
  "note": "Ends that are not written are not given here.",
  "data": [
    {"molecule": "Spy0128 polyprotein I91-Spy0128-I91-Spy0128-I91", "values": [
      {"measurement": "percent of modified Spy0128 after enrichment on Magne-HaloTag-beads", "setting": "[1]", "result": 60, "unit": "%"}
    ]},
    {"molecule": "MEFTDKDMTITFTNKKDAEEDIRSEDLYFQSDNTTPE (also: Halo-tagged, site not given here)", "note": "[Halo-tagged isopeptide-blocker (Spy0128 β-strand11 mimic)]", "values": [
      {"measurement": "percent of AFM traces with at least one modified Spy0128", "setting": "[2]", "result": 32.5, "unit": "%"},
      {"measurement": "percent of Spy0128 blocked", "setting": "[2]", "result": 21.1, "unit": "%"}
    ]}
  ]
}
